± gives the standard deviation of the averaged measurements.
Test system: Saccharomyces cerevisiae
Experiment: protein stability index of tFT-peptide fusion (C-terminal peptide) (PSI (0-1 scale)); higher = more stable (slower turnover)
Settings: genetic background: wild type; temperature: 30 C
Description: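 Multiplexed protein stability (MPS) profiling in S. cerevisiae. Random 12-aa peptides (tFT-X12 library) are fused to the C-terminus of a sfGFP-mCherry tandem fluorescent timer, after mCherry and a GGGS linker. Cells are FACS-sorted into 8 mCherry/sfGFP bins and deep-sequenced. The protein stability index (PSI) is the read-weighted bin average, scaled from 0 (unstable) to 1 (stable). Only peptides with >10 reads are reported; cells were grown at 30 °C in SC-His with glucose.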
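Note: PSI is a weighted mean of sequencing reads over stability bins, variants kept only with over 10 reads, mCherry proximal and sfGFP distal, peptide attached via GGGS linker.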

Row | Sequence | protein stability index
1 | GNLVSFCTKKGA | 0.722 ± 0.014
2 | PFFRAPTRPSVF | 0.716 ± 0.043
3 | LTVVNFFPLGSP | 0.67 ± 0.064
4 | LPFPLGDSRGSC | 0.697 ± 0.011
5 | PPPSPPPTSNPN | 0.742 ± 0.04
6 | YINQWLNVKHGD | 0.635 ± 0.058
7 | ALATPLWDLMPP | 0.606 ± 0.072
8 | FHRHILCSDPRL | 0.709 ± 0.022
9 | HPPPDPPFLAST | 0.611 ± 0.042
10 | TLSPFRLFGPIS | 0.722 ± 0.092
11 | VVSLGLGGFVVR | 0.719 ± 0.033
12 | PVEGSTPPPGTT | 0.614 ± 0.032
13 | PGTVQVGFDIQV | 0.717 ± 0.018
14 | RLRVIMVSVGGV | 0.544 ± 0.0079
15 | VWTITGFIPVVF | 0.517 ± 0.032
16 | NWKNENGRELEE | 0.7 ± 0.029
17 | PPPSLPFPPPHP | 0.6827 ± 0.0029
18 | ALWALSTHHVRK | 0.73866 ± 0.00051
19 | LSPLPRLQPASP | 0.655 ± 0.071
20 | PPPLSPSFIPPP | 0.698 ± 0.042
21 | RWPQNRGRVSKP | 0.747 ± 0.017
22 | PPLRQLTIPLTH | 0.723 ± 0.0088
23 | ARALCYSFPPAL | 0.77 ± 0.1
24 | CKLDVMSRSFVG | 0.664 ± 0.0089
25 | VLNCVGLSLLVE | 0.6068 ± 0.00076

Row | Sequence | protein stability index
26 | KVVGRLGVERVR | 0.753 ± 0.0052
27 | AALTPSCPLHLP | 0.713 ± 0.024
28 | ILCTVVKTDSKE | 0.702 ± 0.081
29 | WFLSGGCLFCWR | 0.714 ± 0.061
30 | VGAGGSLPLNKV | 0.6928 ± 0.0062
31 | APAPTLPALPPL | 0.745 ± 0.026
32 | SVPRPPPPRAPL | 0.646 ± 0.17
33 | FLFCWGCCRLFW | 0.581 ± 0.1
34 | YSIIYATGMRIL | 0.626 ± 0.07
35 | SWGGGGGGAGRG | 0.653 ± 0.017
36 | ASLPPLSPPSSL | 0.71 ± 0.045
37 | HGPFLSNLLPDK | 0.799 ± 0.085
38 | QKHAAFLKRSRE | 0.68 ± 0.024
39 | GLYRQRVCLRSG | 0.6097 ± 0.0036
40 | HIPPFSPCPPTG | 0.707 ± 0.02
41 | PISAGGGVVWVE | 0.6491 ± 0.0047
42 | SALVLVLPSIPP | 0.649 ± 0.024
43 | KDSSRHSPDPSR | 0.715 ± 0.086
44 | TSARQGFFASLV | 0.646 ± 0.049
45 | KITKKNRSWKTS | 0.623 ± 0.019
46 | DRRVSYKKKKRK | 0.672 ± 0.14
47 | EKKLKNEEKKEI | 0.717 ± 0.04
48 | GWDFRERLGGSG | 0.71 ± 0.028
49 | HSGDLYFWGCRD | 0.706 ± 0.061
50 | RDGHGRHGRGER | 0.634 ± 0.024

Row | Sequence | protein stability index
51 | GMVRVRSIATHG | 0.597 ± 0.034
52 | GPKGVTRCGATR | 0.721 ± 0.12
53 | GGSLVRGAGVRS | 0.686 ± 0.031
54 | HTGPTRPGHPLP | 0.703 ± 0.03
55 | KHYKVDAVNIRG | 0.686 ± 0.035
56 | SGLLGVSIHGLR | 0.654 ± 0.053
57 | PLPFPPPLPSHR | 0.767 ± 0.11
58 | SLDDWSAVFHVV | 0.542 ± 0.012
59 | SLICPPFWPPSF | 0.691 ± 0.044
60 | LLLQLSPLLTSL | 0.646 ± 0.019
61 | IGVRSTRFCAIR | 0.655 ± 0.0093
62 | PAPLPPRPTSLP | 0.711 ± 0.011
63 | PPLPTPPPPPDP | 0.662 ± 0.052
64 | GWNGAGSGCVRA | 0.659 ± 0.068
65 | GVSGGDGSKCKE | 0.682 ± 0.016
66 | GACPAFPYSVGR | 0.595 ± 0.018
67 | FLFGILFTSRAV | 0.5311 ± 0.0015
68 | FVILTPFYLTFH | 0.51 ± 0.033
69 | PPPSCPLSPPRL | 0.668 ± 0.0046
70 | RNKLEKKIYKRS | 0.672 ± 0.014
71 | VGIGLTLSLRFS | 0.598 ± 0.0066
72 | KEDKLLRSSEGF | 0.6886 ± 0.0029
73 | ELVGRRAFRASR | 0.693 ± 0.12
74 | DGSMRKWGQGVG | 0.575 ± 0.067
75 | LRRMQGTGCPLP | 0.643 ± 0.035

Row | Sequence | protein stability index
76 | PLRAPPHPPPVP | 0.623 ± 0.048
77 | KWREQPRNDIVL | 0.604 ± 0.047
78 | GLASFVMQVAPF | 0.705 ± 0.008
79 | PSVPPLQPPHSV | 0.697 ± 0.031
80 | VREMMGFWFVPL | 0.691 ± 0.11
81 | LSLASTGVDSGG | 0.743 ± 0.03
82 | IFPPPLLPSLPT | 0.703 ± 0.086
83 | RYFISAHPGGIA | 0.66 ± 0.02
84 | PPPLPPPTPLSP | 0.5736 ± 0.0043
85 | KKKKKNTKVYNE | 0.703 ± 0.13
86 | PPAPYPPFPLEL | 0.821 ± 0.078
87 | ESSKVRNLELLK | 0.669 ± 0.017
88 | WPFHADPPPPVP | 0.6969 ± 0.0026
89 | NRAVTRKRKEEK | 0.664 ± 0.03
90 | WLGGGGTVAHSP | 0.726 ± 0.1
91 | RRHHSVSPLPFL | 0.709 ± 0.0099
92 | VSWVWMGRLGYC | 0.657 ± 0.02
93 | TMCRGGVSSQDL | 0.662 ± 0.057
94 | PYFHRRMSLESF | 0.703 ± 0.013
95 | SPLYCGLSLPSV | 0.664 ± 0.027
96 | FIGLGPGVGGVW | 0.704 ± 0.028
97 | VTTDLALCGSVC | 0.624 ± 0.016
98 | QFIGVGKVQRFG | 0.59 ± 0.014
99 | HKKAWVVTVGIS | 0.602 ± 0.042
100 | KKYKKKKKRARY | 0.698 ± 0.019

Row | Sequence | protein stability index
101 | SRKNGLQRKQKT | 0.7277 ± 0.0055
102 | SLPSHPLPDPSR | 0.67 ± 0.018
103 | GRGGVLEEAVGG | 0.654 ± 0.077
104 | SNGGCIMSNIYS | 0.758 ± 0.059
105 | GGGAGVTLSADG | 0.682 ± 0.059
106 | YNRQVDFECHKF | 0.698 ± 0.044
107 | GFACRSGSFWST | 0.848 ± 0.15
108 | GVPPFSPPPPPH | 0.683 ± 0.017
109 | AGGRGNVGGVHV | 0.679 ± 0.048
110 | IKLKVKIQKENG | 0.654 ± 0.021
111 | VSGLGAHEPDKL | 0.667 ± 0.0072
112 | IGWCPASFMVIG | 0.585 ± 0.049
113 | VRIIVVDLGGRR | 0.684 ± 0.0082
114 | VLLLGYDRGWDD | 0.718 ± 0.015
115 | GVFGLMVGWGWG | 0.671 ± 0.053
116 | LPSSLFLCSLFC | 0.655 ± 0.026
117 | SPARLPPLPSLS | 0.734 ± 0.038
118 | ERKDPNTNKVKS | 0.678 ± 0.0083
119 | PLPRLPSSLSRP | 0.697 ± 0.023
120 | GRSPEIGPHIVN | 0.699 ± 0.014
121 | PWEVEAKNGRDR | 0.717 ± 0.032
122 | LSTCHSPSLPAT | 0.739 ± 0.049
123 | LAPPPARLPLSP | 0.687 ± 0.009
124 | PVLPFPSPPAAS | 0.682 ± 0.078
125 | TPTSPPLPLTIS | 0.579 ± 0.016

Row | Sequence | protein stability index
126 | MFVRRTDRGGIV | 0.7312 ± 0.0069
127 | APSVSKNSEVRK | 0.681 ± 0.019
128 | HLLNPVRSPLPA | 0.63 ± 0.063
129 | EKKKKTKKEKKK | 0.677 ± 0.0082
130 | HSCFPPLSTSVL | 0.817 ± 0.12
131 | GAATKRKYTINT | 0.665 ± 0.013
132 | EHKVQTTTNQKE | 0.697 ± 0.011
133 | AIVRFAPWPVPR | 0.701 ± 0.043
134 | GDIRLTGLSIVS | 0.638 ± 0.031
135 | HRFEEGAPAPTE | 0.704 ± 0.013
136 | QSLPLSAPAPAC | 0.697 ± 0.037
137 | VTPLPPPRTFLP | 0.67 ± 0.07
138 | VVLTGPGYCLTL | 0.763 ± 0.047
139 | CCFPPLSPPASP | 0.656 ± 0.072
140 | RLEMPSVRSCAV | 0.638 ± 0.17
141 | KKKKKQKKKKRK | 0.682 ± 0.013
142 | ELASLSPCCMGM | 0.762 ± 0.15
143 | AKVRGGKGLRLV | 0.6687 ± 0.003
144 | PYSHFVFGLCEL | 0.75 ± 0.096
145 | WDSGRWSCLRGW | 0.698 ± 0.044
146 | IREFNLGTQIRY | 0.711 ± 0.035
147 | APPRPPTLHRPH | 0.721 ± 0.0085
148 | RVCDSAPKRNRH | 0.676 ± 0.018
149 | PPLPPLPLPNPP | 0.676 ± 0.064
150 | FPPIHIHSPCYP | 0.765 ± 0.021

Row | Sequence | protein stability index
151 | GIYCSFSCKPCP | 0.6699 ± 0.0042
152 | LRPILLSWFRKS | 0.61 ± 0.039
153 | VPVVQPNRSALI | 0.7454 ± 0.0071
154 | VCRRSVLHSCWS | 0.678 ± 0.0097
155 | AWLTTSGLVGSD | 0.725 ± 0.029
156 | SGHSRCSPALPV | 0.7123 ± 0.002
157 | EINEKPGINKKI | 0.6587 ± 0.0028
158 | QPRLLGPDRIDL | 0.662 ± 0.036
159 | KRIDLDCSVAAD | 0.643 ± 0.022
160 | FISVFYMLFPYR | 0.626 ± 0.013
161 | PPLSPPPLPAAP | 0.724 ± 0.03
162 | RSMLVSRQSIGV | 0.695 ± 0.019
163 | SFPPTSPTHFPL | 0.703 ± 0.031
164 | SLPPPSPLPPPV | 0.558 ± 0.018
165 | HNIRIDTSEKNR | 0.6001 ± 0.0024
166 | SPAKRLFRFPSS | 0.729 ± 0.05
167 | LWGAIGHGNAGP | 0.684 ± 0.029
168 | MVLTVIHFDCDI | 0.596 ± 0.014
169 | PAASHPPRWPRR | 0.75 ± 0.049
170 | PPPPARSPLTPL | 0.725 ± 0.15
171 | FSLCFSSFSLFP | 0.676 ± 0.016
172 | EYDIKRRKRRNT | 0.67 ± 0.23
173 | SFSPEQITCNPY | 0.598 ± 0.037
174 | GGSCTRNLLRYW | 0.727 ± 0.011
175 | TSSTEKTKTKRP | 0.809 ± 0.17

Row | Sequence | protein stability index
176 | VGARAIITIEFG | 0.598 ± 0.018
177 | VRVSSSDILICL | 0.675 ± 0.079
178 | EYISNLLSSPEP | 0.633 ± 0.013
179 | HAPLIPRFALIP | 0.677 ± 0.013
180 | NQERYKKIRSKQ | 0.714 ± 0.054
181 | LAVKGIVNDSTI | 0.683 ± 0.0084
182 | VVRWFGGGGVRG | 0.719 ± 0.1
183 | LLRPLSPIDVLR | 0.702 ± 0.069
184 | EEGGQGITIEES | 0.686 ± 0.12
185 | KQHTEQIDRRTG | 0.6635 ± 0.0036
186 | GRRGRSASRIRA | 0.76 ± 0.14
187 | NKVISETKKLDN | 0.64983 ± 0.00019
188 | SYLHALSRPSLL | 0.734 ± 0.03
189 | PPSPLAPPLPPP | 0.709 ± 0.036
190 | MPTSYDGCDRGH | 0.713 ± 0.011
191 | CTPVLLLRVLGN | 0.58 ± 0.036
192 | SKVLRRLEPTIV | 0.603 ± 0.04
193 | GCRSYRVFSGMI | 0.727 ± 0.12
194 | PHRPSPPIPLSV | 0.662 ± 0.043
195 | KKRILNRKKEER | 0.705 ± 0.052
196 | NFDNGAGLNRGG | 0.6733 ± 0.0059
